Assay results published in publication PMC2877510 (Journal of biomolecular NMR, 2010).

Legend:
[1] = target: carboxyl terminal domain of rat Cx43 (Cx43CT; residues S255-I382) (rat, UniProt P08050 255-382); experiment: NMR titration
[2] = target: ubiquitin (from bovine erythrocytes) (bovine, UniProt P0CG53 1-76); experiment: NMR titration

Sequence of carboxyl terminal domain of rat Cx43 (Cx43CT; residues S255-I382) (P08050 255-382): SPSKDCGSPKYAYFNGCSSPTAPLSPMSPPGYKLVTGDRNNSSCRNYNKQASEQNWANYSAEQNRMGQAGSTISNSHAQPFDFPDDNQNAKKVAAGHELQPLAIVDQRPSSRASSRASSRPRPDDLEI

- binding result [1]: binds
- binding result [2]: binds
Binder: MPEVRFQQQLEQLNSMGFINREANLQALIATGGDINAAIERLLGSQLS (domain or fragment, mouse, UniProt Q99NB8 549-596, looked up) [UBA domain of CIP75 (connexin43-interacting protein of approximately 75 kDa), residues M549-S596]
